According to patent US20210054355A1 (NEW YORK UNIVERSITY, published 2021):

T1: Soluble human α-Klotho ectodomain (αKlotho^ecto) (human, UniProt Q9UEF7 34-981)
T1 construct: also called wild-type αKlotho^ecto; soluble αKlotho
T1 sequence: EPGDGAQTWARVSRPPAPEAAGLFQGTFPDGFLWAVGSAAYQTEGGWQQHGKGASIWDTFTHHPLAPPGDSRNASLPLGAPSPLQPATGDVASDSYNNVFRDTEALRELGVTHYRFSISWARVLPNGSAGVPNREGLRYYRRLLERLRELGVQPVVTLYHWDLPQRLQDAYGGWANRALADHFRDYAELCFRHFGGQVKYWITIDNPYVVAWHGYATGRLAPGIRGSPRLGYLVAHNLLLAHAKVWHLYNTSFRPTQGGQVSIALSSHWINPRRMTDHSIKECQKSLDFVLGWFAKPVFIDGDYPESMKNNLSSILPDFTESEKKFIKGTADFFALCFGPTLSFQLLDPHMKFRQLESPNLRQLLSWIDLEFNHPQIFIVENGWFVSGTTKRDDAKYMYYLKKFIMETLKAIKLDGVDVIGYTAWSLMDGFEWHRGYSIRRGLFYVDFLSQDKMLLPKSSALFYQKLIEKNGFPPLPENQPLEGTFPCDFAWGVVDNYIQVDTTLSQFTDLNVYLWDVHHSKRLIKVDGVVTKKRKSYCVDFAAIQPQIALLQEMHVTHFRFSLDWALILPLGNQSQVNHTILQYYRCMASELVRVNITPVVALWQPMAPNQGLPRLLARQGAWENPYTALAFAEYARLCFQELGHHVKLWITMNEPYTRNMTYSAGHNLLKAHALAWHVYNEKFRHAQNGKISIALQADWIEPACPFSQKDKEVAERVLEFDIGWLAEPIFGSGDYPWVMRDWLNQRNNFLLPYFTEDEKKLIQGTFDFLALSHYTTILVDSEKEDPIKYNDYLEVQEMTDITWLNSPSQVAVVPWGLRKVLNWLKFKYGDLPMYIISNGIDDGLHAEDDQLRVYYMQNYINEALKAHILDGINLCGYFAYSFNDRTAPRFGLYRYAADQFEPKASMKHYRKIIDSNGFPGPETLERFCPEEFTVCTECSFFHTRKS

T2: αKlotho^ecto/ΔRBA (soluble αKlotho ectodomain lacking L544 to T565 of the KL2 β1α1 loop) (human, UniProt Q9UEF7 34-981)
T2 construct: the mature protein is E34 to S959; Expressed and purified like the wild type (pEF1α/myc-His A); also called α-Klotho^ecto/deltaRBA; αKlotho^ecto/ΔRBA mutant
T2 sequence: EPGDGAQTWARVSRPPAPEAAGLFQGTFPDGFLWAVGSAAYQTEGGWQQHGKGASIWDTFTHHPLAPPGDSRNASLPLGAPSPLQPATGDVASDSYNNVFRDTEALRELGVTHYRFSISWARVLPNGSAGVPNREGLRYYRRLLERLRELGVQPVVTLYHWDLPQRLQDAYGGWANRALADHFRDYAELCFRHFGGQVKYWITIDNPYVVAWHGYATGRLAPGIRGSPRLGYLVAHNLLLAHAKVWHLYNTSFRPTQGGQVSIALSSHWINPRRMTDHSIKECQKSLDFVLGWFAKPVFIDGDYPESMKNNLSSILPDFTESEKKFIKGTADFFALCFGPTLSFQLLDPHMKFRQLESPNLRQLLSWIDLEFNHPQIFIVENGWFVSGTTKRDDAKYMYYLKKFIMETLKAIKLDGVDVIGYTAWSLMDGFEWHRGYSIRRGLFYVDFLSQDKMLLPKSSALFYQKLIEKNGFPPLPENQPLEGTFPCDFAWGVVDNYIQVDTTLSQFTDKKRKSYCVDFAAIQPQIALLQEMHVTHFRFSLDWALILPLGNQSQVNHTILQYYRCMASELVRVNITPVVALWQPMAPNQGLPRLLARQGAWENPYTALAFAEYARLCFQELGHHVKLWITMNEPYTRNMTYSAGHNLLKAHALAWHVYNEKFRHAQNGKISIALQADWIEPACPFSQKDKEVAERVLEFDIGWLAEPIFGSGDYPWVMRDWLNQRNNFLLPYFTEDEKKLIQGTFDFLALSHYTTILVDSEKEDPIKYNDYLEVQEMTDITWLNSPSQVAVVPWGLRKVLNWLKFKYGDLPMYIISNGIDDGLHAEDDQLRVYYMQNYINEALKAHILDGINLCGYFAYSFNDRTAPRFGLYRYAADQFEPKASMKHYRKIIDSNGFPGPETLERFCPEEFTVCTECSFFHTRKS

B1: FGFR1c^ecto (human FGFR1c ligand-binding domain, D2, D3 and D2-D3 linker) (receptor)
chain: DNTKPNRMPVAPYWTSPEKMEKKLHAVPAAKTVKFKCPSSGTPNPTLRWLKNGKEFKPDHRIGGYKVRYATWSIIMDSVVPSDKGNYTCIVENEYGSINHTYQLDVVERSPHRPILQAGLPANKTVALGSNVEFMCKVYSDPQPHIQWLKHIEVNGSKIGPDNLPYVQILKTAGVNTTDKEMEVLHLRNVSFEDAGEYTCLAGNSIGLSHHSAWLTVLEALEER

Assays:
[1] = biological target: T1, Soluble human α-Klotho ectodomain …; assay: SEC-MALS, 1:1:1 mixture with FGFR1c^ecto and αKlotho^ecto
Method: (§1) A Superdex 200 10/300 GL column (GE Healthcare, USA) was placed in-line between the HPLC pump (Waters 1525) and the HPLC UV (Waters 2998 Photodiode Array), laser light scattering, and refractive index detectors. Light scattering and refractive index detectors were calibrated following the manufacturer's guidelines. The refractive index increment (dn/dc) in which n is the refractive index and c is the concentration of the mixture of DDM and CHS in 20 mM Tris-HCl pH 8.0 buffer containing 300 mM NaCl, was determined offline using an Optilab T-rEX refractive index detector. Monomeric bovine serum albumin (#23210, Thermo Scientific, USA) was used as part of routine data quality control.
(§2) 60 ml or more of 25 mM HEPES pH 7.5 buffer containing 150 mM NaCl were passed through the system at a flow rate of 0.5 mL/min to equilibrate the Superdex 200 10/300 GL column and establish stable baselines for light scattering and refractive index detectors. Purified αKlotho^ecto, FGER1c^ecto (wild type or mutant), and FGF23 (wild type or mutant) proteins were mixed at a molar ratio of 1:1:1 and concentrated to 12.5 μM. 50 μl of protein samples with a molar equivalent of a heparin hexasaccharide (#H006, Iduron, Manchester, U.K.) were injected onto the gel filtration column, and the column eluent was continuously monitored for 280 nm absorbance, laser light scattering, and refractive index. […]

[2] = biological target: B1; assay: SEC-MALS, 1:1:1 ternary complex with FGFR1c^ecto and αKlotho^ecto
Method: as §1, §2

[3] = biological target: T1, Soluble human α-Klotho ectodomain …; assay: SEC-MALS of a 1:1 mixture, UV280 absorbance and molecular weight against retention time [panel A]
[4] = biological target: T2, αKlotho^ecto/ΔRBA (soluble αKlotho …); assay: as above

binding result [1] | binding result [2] | binding result [3] | binding result [4] | Binder
binds | binds |  |  | FGF23^ΔSRBS (FGF23^WT carrying M149A/N150A/P151A) (ligand) YPNASPLLGSSWGGLIHLYTATARNSYHLQIHKNGHVDGAPHQTIYSALMIRSEDAGFVVITGVMSRRYLCMDFRGNIFGSHYFDPENCRFQHQTLENGYDVYHSPQYHFLVSLGRAKRAFLPGAAAPPYSQFLSRRNEIPLIHFNTPIPRQHTQSAEDDSERDPLNVLKPRARMTPAPAS
 |  | binds | no binding | B1
